Test results taken from article PMC10585736 (2023).

B1: Pol30p (PCNA), wild type, of the POL30-0 strain [S. cerevisiae] / Rrm3p-Myc [S. cerevisiae] (parent complex)
chain 1: MLEAKFEEASLFKRIIDGFKDCVQLVNFQCKEDGIIAQAVDDSRVLLVSLEIGVEAFQEYRCDHPVTLGMDLTSLSKILRCGNNTDTLTLIADNTPDSIILLFEDTKKDRIAEYSLKLMDIDADFLKIEELQYDSTLSLPSSEFSKIVRDLSQLSDSINIMITKETIKFVADGDIGSGSVIIKPFVDMEHPETSIKLEMDQPVDLTFGAKYLLDIIKGSSLSDRVGIRLSSEAPALFQFDLKSGFLQFFLAPKFNDEE
chain 2: MFRSHASGNKKQWSKRSSNGSTPAASASGSHAYRQQTLSSFFMGCGKKSAAASKNSTTIIDLESGDEGNRNITAPPRPRLIRNNSSSLFSQSQGSFGDDDPDAEFKKLVDVPRLNSYKKSSRSLSMTSSLHKTASASTTQKTYHFDEDETLREVTSVKSNSRQLSFTSTINIEDSSMKLSTDSERPAKRSKPSMEFQGLKLTVPKKIKPLLRKTVSNMDSMNHRSASSPVVLTMEQERVVNLIVKKRTNVFYTGSAGTGKSVILQTIIRQLSSLYGKESIAITASTGLAAVTIGGSTLHKWSGIGIGNKTIDQLVKKIQSQKDLLAAWRYTKVLIIDEISMVDGNLLDKLEQIARRIRKNDDPFGGIQLVLTGDFFQLPPVAKKDEHNVVKFCFESEMWKRCIQKTILLTKVFRQQDNKLIDILNAIRYGELTVDIAKTIRNLNRDIDYADGIAPTELYATRREVELSNVKKLQSLPGDLYEFKAVDNAPERYQAILDSSLMVEKVVALKEDAQVMMLKNKPDVELVNGSLGKVLFFVTESLVVKMKEIYKIVDDEVVMDMRLVSRVIGNPLLKESKEFRQDLNARPLARLERLKILINYAVKISPHKEKFPYVRWTVGKNKYIHELMVPERFPIDIPRENVGLERTQIPLMLCWALSIHKAQGQTIQRLKVDLRRIFEAGQVYVALSRAVTMDTLQVLNFDPGKIRTNERVKDFYKRLETLK

Variants of: B1
Experiment: co-immunoprecipitation, western blot band quantification; α-Myc IP; parent: 2.1; read off a plot

Row | response | Variant
1 | ~1.8 pixel density fold over input signal | chain 1 L126A, chain 1 I128A
